Patent US6096512

What was measured:
[1] = target: T1, bovine rhodanese, native (bovine) (UniProt P00586)
T1 sequence: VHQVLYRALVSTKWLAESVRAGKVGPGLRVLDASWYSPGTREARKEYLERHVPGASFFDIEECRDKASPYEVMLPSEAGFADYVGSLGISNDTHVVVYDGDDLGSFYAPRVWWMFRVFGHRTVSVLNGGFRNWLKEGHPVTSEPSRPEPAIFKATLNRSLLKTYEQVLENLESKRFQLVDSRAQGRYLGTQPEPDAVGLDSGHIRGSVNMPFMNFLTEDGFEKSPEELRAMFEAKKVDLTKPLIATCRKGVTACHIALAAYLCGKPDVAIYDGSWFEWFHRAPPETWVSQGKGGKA

[2] = target: bovine cytochrome C, reduced and carboxymethylated (bovine) (UniProt P62894)
[3] = target: bovine cytochrome C, native (bovine) (UniProt P62894)
[4] = target: subtilisin, reduced and carboxymethylated
[5] = target: T2, bovine rhodanese, reduced and carboxymethylated (bovine) (UniProt P00586)
T2 sequence (chain, reduced and carboxymethylated): T1 sequence

[6] = target: synthetic acceptor peptide Pro-Pro-Ala-D-Ser-Thr-D-Ser-Ala-Pro-Gly
[7] = target: T3, synthetic acceptor peptide Arg-Ser-Pro-Pro-Pro
T3 sequence (peptide): RSPPP

[8] = target: T4, synthetic acceptor peptide Arg-Thr-Pro-Pro-Pro
T4 sequence (peptide): RTPPP

Product formed nmol/min/mg (transfer of N-acetylgalactosamine to protein acceptors) [1]: < 0.1 nmol/min/mg
Product formed nmol/min/mg (transfer of N-acetylgalactosamine to protein acceptors) (myelin basic protein): 22.2 nmol/min/mg
Product formed nmol/min/mg (transfer of N-acetylgalactosamine to protein acceptors) [2]: < 0.1 nmol/min/mg
Product formed nmol/min/mg (transfer of N-acetylgalactosamine to protein acceptors) [3]: < 0.1 nmol/min/mg
Product formed nmol/min/mg (transfer of N-acetylgalactosamine to protein acceptors) [4]: 0.6 nmol/min/mg
Product formed nmol/min/mg (transfer of N-acetylgalactosamine to protein acceptors) [5]: 3.3 nmol/min/mg
Product formed nmol/min/mg (transfer of N-acetylgalactosamine to protein acceptors) (subtilisin, native): < 0.1 nmol/min/mg
Vmax /Km M^-1 s^-1 [6]: 1.2 M⁻¹ s⁻¹
Vmax /Km M^-1 s^-1 [7]: 0.4 M⁻¹ s⁻¹
Km [8]: 3.3 mM
Vmax /Km M^-1 s^-1 [8]: 183 M⁻¹ s⁻¹
B1: bovine colostrum UDP-GalNAc:polypeptide, N-acetylgalactosaminyltransferase (purified soluble enzyme) (enzyme)
chain: GLPAGDVLEPVQKPHEGPGEMGKPVVIPKEDQEKMKEMFKINQFNLMASEMIALNRSLPDVRLEGCKTKVYPDNLPTTSVVIVFHNEAWSTLLRTVHSVINRSPRHMLEEIVLVDDASERDFLKRPLESYVKKLKVPVHVIRMEQRSGLIRARLKGAAVSKGQVITFLDAHCECTVGWLEPLLARIKHDRKTVVCPIIDVISDDTFEYMAGSDMTYGGFNWKLNFRWYPVPQREMDRRKGDRTLPVRTPTMAGGLFSIDRDYFQEIGTYDAGMDIWGGENLEISFRIWQCGGTLEIVTCSHVGHVFRKATPYTFPGGTGQIINKNNRRLAEVWMDEFKNFFYIISPGVTKVDYGDISSRLGLRHKLQCRPFSWYLENIYPDSQIPRHYFSLGEIRNVETNQCLDNMARKENEKVGIFNCHGMGGNQVFSYTANKEIRTDDLCLDVSKLNGPVTMLKCHHLKGNQLWEYDPVKLTLQHVNSNQCLDKATDEDSQVPSIRDCSGSRSQQWLLRNVTLPEIF
